# Article PMC8251270 (Journal of Leukocyte Biology, 2021)
# B1: mAb8 (antibody, V domains shown)
# VH: DVKLVESGGGLVKLGGSLKLSCAASGFTFSTDYMSWVRQSPEKRLELVAAINSNGGTTYYPDTVKGRFIISRDNAKNTLYLQMSSLRSEDTALYYCARQVKNGLDYWGQGTSVTVSS
# VL: DIQMTQTTSSLSASLGDRVTISCRASQDISNYLNWYQQKPDGTVKLLIYKTSRLHSGVPSRFRGSGSGTDYSLTISNLEEEDVATYFCQQGNTLPPTFGGGTKLEIK
# B2: mAb2 (antibody, V domains shown)
# VH: DVKLVESGGGLVNLGGSLKLSCAASGFTFSSDYMSWVRQIPEKRLELVAAINSNGGTTYYPDTVKGRFTISRDNAKNTLYLQMSSLKSEDTALYYCARQGKNGMDYWGQGTSVTVSS
# VL: DIQMTQTTSSLSASLGDRVTISCRASQDISNHLNWYQQRPDGTVKLLIYYTSRLHSGVPSRFSGSGSGTDYSFTITNLDQEDIATYFCQQGKTLPPTFGGGTKLEIK
# Key:
# [1] = molecular target: tetranectin (TN) of murine lung tissue (Mus musculus (lung tissue lysate), UniProt P43025); assay: Western blot; settings: one partner purified
# [2] = molecular target: recombinant receptor‐binding motif (RBM) of SARS‐CoV‐2 spike (S) protein, residue 437–508 (SARS-CoV-2, UniProt P0DTC2); assay: SPR; settings: both partners purified
# Chain of tetranectin (TN) of murine lung tissue (P43025 22-202): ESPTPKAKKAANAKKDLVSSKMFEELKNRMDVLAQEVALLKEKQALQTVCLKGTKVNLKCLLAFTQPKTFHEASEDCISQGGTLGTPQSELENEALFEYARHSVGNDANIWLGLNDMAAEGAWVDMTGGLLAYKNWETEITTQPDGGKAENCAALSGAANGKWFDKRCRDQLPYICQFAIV
Binder,binding result [1],Kd [2]
B1,binds,0.0174 µM
B2,binds,0.0628 µM
